This note sets out measurements from patent US20090098530A1 (CRUCELL HOLLAND B V, published 2009).

For this assay, the target named is T1, human angiotensin-converting enzyme 2 (ACE2 protein) expressed on stably transfected PER.C6 cells (human, UniProt Q9BYF1 18-805).
T1 construct: also called human ACE2 receptor; PER.C6-ACE2
Nature of the assay: flow cytometry on ACE2-transfected PER.C6 clones.

T1 sequence (Q9BYF1 18-805 limits assumed): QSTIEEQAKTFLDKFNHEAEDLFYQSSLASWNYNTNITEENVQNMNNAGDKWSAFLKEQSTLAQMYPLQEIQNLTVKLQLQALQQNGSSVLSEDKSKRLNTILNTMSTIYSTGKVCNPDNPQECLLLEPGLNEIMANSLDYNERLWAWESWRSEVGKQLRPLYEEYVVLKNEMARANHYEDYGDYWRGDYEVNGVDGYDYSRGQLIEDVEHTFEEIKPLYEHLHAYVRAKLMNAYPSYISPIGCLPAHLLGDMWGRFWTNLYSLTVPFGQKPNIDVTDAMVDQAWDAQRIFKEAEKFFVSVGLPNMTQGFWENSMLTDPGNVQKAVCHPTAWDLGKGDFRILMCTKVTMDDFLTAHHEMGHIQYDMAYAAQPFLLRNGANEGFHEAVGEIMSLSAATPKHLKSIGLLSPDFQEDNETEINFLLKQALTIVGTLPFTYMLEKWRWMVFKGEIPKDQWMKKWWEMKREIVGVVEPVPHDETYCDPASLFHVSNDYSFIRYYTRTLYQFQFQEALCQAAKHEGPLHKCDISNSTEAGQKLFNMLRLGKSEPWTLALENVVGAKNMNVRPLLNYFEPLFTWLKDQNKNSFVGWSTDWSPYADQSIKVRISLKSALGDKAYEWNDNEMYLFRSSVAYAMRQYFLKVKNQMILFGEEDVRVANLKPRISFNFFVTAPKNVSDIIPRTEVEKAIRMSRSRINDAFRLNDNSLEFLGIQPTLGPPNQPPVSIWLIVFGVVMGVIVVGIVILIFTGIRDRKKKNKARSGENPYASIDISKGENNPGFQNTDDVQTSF

B1: wild-type SARS-CoV Frankfurt 1 S318-510 fragment, myc/His-tagged (ligand)
chain: not shown
With B1, the binding result was “binds”.
